In US20230357367A1:

Tests used:
Assay in all cases: DELFIA, IgG titrated on captured biotin-peptide
Design in all cases: unit not given beside the values
[1] = target: SARS-CoV-2 spike S2 peptide 1149-1163, biotinylated (SARS-CoV-2)
[2] = target: SARS-CoV-2 spike S2 peptide 1157-1171, biotinylated (SARS-CoV-2)
[3] = target: SARS-CoV-2 spike S2 peptide 1143-1162 (stem helix region), biotinylated (SARS-CoV-2)
[4] = target: SARS-CoV-2 spike S2 peptide 1145-1159, biotinylated (SARS-CoV-2)
[5] = target: SARS-CoV-2 spike S2 peptide 1153-1167, biotinylated (SARS-CoV-2)
[6] = target: SARS-CoV-2 spike S2 peptide 1149-1167 (C-terminal end of the stem helix), biotinylated (SARS-CoV-2)
[7] = target: SARS-CoV-2 spike S2 peptide 1133-1147, biotinylated (SARS-CoV-2)
[8] = target: SARS-CoV-2 spike S2 peptide 1137-1151, biotinylated (SARS-CoV-2)
[9] = target: SARS-CoV-2 spike S2 peptide 1141-1155, biotinylated (SARS-CoV-2)

B1: AB-1 (antibody, V domains shown)
VH: EVQLVESGAEVKKPGESLKISCKGSGYTFTRYWIGWVRQMPGKGLEWMGIIYPGDSDVRYSPSFQGHVTISADKSISTAYLQWNSLKASDTAMYYCARLPQYCSKGVCYRWFDPWGQGTLVTVSS
VL: EIVLTQSPSSVSASVGDRVTITCRASQGISSWLAWYQQKPGKAPKLLIYAASSLQSGVPSRFSGSGSGTDFTLTISSLQPEDFATYYCQQGHSFPYTFGQGTNLEIK
In the case of B1, the AUC [1] is reported as 3.52e+06, the AUC [2] is reported as 30000 and the AUC [3] is reported as 3.52e+06. For the same binder, the AUC [4] was 1.7e+06, the AUC [5] was 3.32e+06 and the AUC [6] was 3.27e+06. The AUC [7] was 27100, the AUC [8] was 21500 and the AUC [9] was 18000.
